In patent US8257714B2, “Compositions and methods for immunotherapy of cancer and infectious diseases” (priority 2003, dated 2012):
Marks after values point to notes of the source that are not given here.

Key:
[1] = Experimental autoimmune encephalomyelitis (EAE) model; type: in vivo, SJL mice
Description: Treatments were given daily for 5 days. Linomide is a drug that is known to inhibit EAE and is used as a positive control. […] Severity of EAE is measured by means of the EAE score which starts at […] and increases to a score of 5 when death occurs. For ethical reasons mice are sacrificed when a score of 4 is reached.

[2] = tested on: influenza virus A/NWS/33 (HINI); experiment: Influenza infection in mice; type: in vivo, BALB/c mice; details: for Mean Day to Death ± SD: mice dying before day 21; for decline in arterial oxygen saturation: days 3-11
Description: Specific pathogen-free female BALB/c mice were infected intranasally with an LD90 dose of influenza virus A/NWS/33 (HINI). […] Placebo treated mice received bovine serum albumin in phosphate-buffered saline. Mice were observed daily for death.

[3] = Stability of E1 in human serum albumin; type: physicochemical; details: for loss of activity: in the presence of HSA
Description: Higher temperature studies also indicate remarkable stability.

[4] = tested on: Mycobacterium tuberculosis Erdman strain; experiment: Tuberculosis in mice; type: in vivo; details: 0.1, 1.0 or 10.0 ng i.p. days 1-5; day 0, 21 and 42
Description: Groups of mice were exposed to Mycobacterium tuberculosis Erdman strain (M.tb) by inhalation on day 0. […] A control group of mice received vehicle only. On day 0, 21 and 42 the colony forming units (cfu) of M.tb in the lung were determined.

[5] = 100 ng/day i.p., schedule 0, 3, 6
[6] = 100 ng/day i.p., schedule −2, 0, 3, 6
[7] = 1,000 ng/day i.p., schedule 0, 3, 6

B1: ARP E1: recombinant E. tenella ARP from E. coli clone E1 (ATCC PTA-6120), SEQ ID NO:28 (protein, listed as Eimeria tenella)
chain: MGEEADTQAWDTSVREWLVDTGRVFAGGVASIADGCRLFGAAVEGEGNAWEELVKTNYQIEVPQEDGTSISVDCDEAETLRAVVDGRAPNGVYIGGTKYKLAEVKRDFTFNDQNYDVAILGKNKGGGFLIKTPNENVVIALYDEEKEQNKADALTTALNFAEYLYQGGF
Day 15 EAE Score ± SD ([1]; 0.1 μg i.p. daily for 5 days from day 10): 2.7 ± 1.3
Day 15 EAE Score ± SD ([1]; 1.0 μg i.p. daily for 5 days from day 10): 1.5 ± 1.6
Day 15 EAE Score ± SD ([1]; 10.0 μg i.p. daily for 5 days from day 10): 1.1 ± 1.5
Survive/Total [2, 5]: 2/10
Mean Day to Death ± SD [2, 5]: 12.1 ± 1.6 days
Survive/Total [2, 6]: 0/10
Mean Day to Death ± SD [2, 6]: 12.3 ± 1.2 days
decline in arterial oxygen saturation ([2]; 1,000 ng): statistically significant reduction
Survive/Total [2, 7]: 3/10
Mean Day to Death ± SD [2, 7]: 12.7 ± 2.7 days
decline in arterial oxygen saturation ([2]; 10,000 ng): statistically significant reduction
Survive/Total ([2]; 10,000 ng/day i.p., schedule 0, 3, 6, P < 0.05): 5/10*
Mean Day to Death ± SD ([2]; 10,000 ng/day i.p., schedule 0, 3, 6): 12.0 ± 1.4 days
loss in activity ([3]; 1 μg/mL, HSA 1, 5 or 10% w/v, 4° C., 4, 11, 25, 39 and 54 days, preliminary): no loss in activity
storage time without loss of activity (DC assay) ([3]; 1 μg/ml with 3% HSA, 4° C.): at least 55 weeks
loss of activity ([3]; 2 hours 70° C.): No loss of activity
loss of activity ([3]; 6 hours at 55° C.): No loss of activity
loss of activity ([3]; 41 days at 37° C.): No loss of activity
cfu of M.tb in the lung versus control group [4]: no statistically significant difference
